# Residue numbers refer to the chain shown, from its start. “And” between values parts separate entries of the source, which are not always exact repeats. Equal values may be shown once. Read-outs that look alike come from different tables or passages of the source.
# B1: MAb 812 (antibody, V domains shown)
# VH: EVQLLESGGGLIQPGGSLRLSCAASGFTVSSNYMSWVRQAPGKGLEWVSVIYSGGRTYYADSVKGRFTISRDSSKNTLYLQMNSLRAEDTAVYYCARNYYGSTYDYWGQGTLVTVSS
# VL: EIVLTQSPVTLSVPPGERASLSCRASQNIYTAVAWYQQKPGQAPRLLIYGASTRATGIPARFSGGGSGTDYTLTISSLESEDFAVYHCQQYFSWPLTFGGGTKLEIK
# notes: IgG1/kappa, CHO; also called H1192/L308
# B2: MAb 1896 (antibody, V domains shown)
# VH: EVQLVESGGGLIQPGGSLRLSCAVSGLNVSRDYMSWVRQAPGKGLEWISVIYRGGATMYADSVKGRFTISRDTSKNTVFLQMSRLKVADTAVYYCARNYYGSTLDYWGQGTLVTVSS
# VL: B1 VL with G50N, Y91W, F92H
# notes: IgG1/kappa, CHO; also called H1685/L459
# B3: MAb 1210 (antibody, V domains shown)
# VH: B1 VH with Y104V
# VL: B1 VL with Y91W, F92H
# notes: IgG1/kappa, CHO; also called H1557/L332
# B4: MAb 813 (antibody, V domains shown)
# VH: B1 VH
# VL: B1 VL with F92M
# notes: IgG1/kappa, CHO; also called H1192/L309
# B5: MAb 855 (antibody, V domains shown)
# VH: B1 VH
# VL: B1 VL with Y91W, F92H
# notes: IgG1/kappa, CHO; also called H1192/L332
# B6: MAb 2006 (antibody, V domains shown)
# VH: B2 VH with M58H
# VL: B1 VL with G50N, Y91W, F92H
# notes: IgG1/kappa, CHO; also called H1831/L459
# B7: MAb 815 (antibody, V domains shown)
# VH: B1 VH
# VL: B1 VL with F92H, S93A
# notes: IgG1/kappa, CHO; also called H1192/L311
# B8: MAb 2060 (antibody, V domains shown)
# VH: B2 VH with A56V
# VL: B1 VL with V9A, P14S, G50N, Y91W, F92H
# notes: IgG1/kappa, CHO; also called H1844/L471
# B9: MAb 1777 (antibody, V domains shown)
# VH: B2 VH with L104I
# VL: B1 VL with Y91W, F92H
# notes: IgG1/kappa, CHO; also called H1684/L332
# B10: MAb 1067 (antibody, V domains shown)
# VH: B1 VH with Y104L
# VL: B1 VL with Y91W, F92H
# notes: IgG1/kappa, CHO; also called H1487/L332
# B11: MAb 1371 (antibody, V domains shown)
# VH: B2 VH with L104H
# VL: B1 VL with Y91W, F92H
# notes: IgG1/kappa, CHO; also called H1596/L332
# B12: MAb 1999 (antibody, V domains shown)
# VH: B2 VH with A56I
# VL: B1 VL with G50N, Y91W, F92H
# notes: IgG1/kappa, CHO; also called H1824/L459
# B13: MAb 1852 (antibody, V domains shown)
# VH: EVQLLESGGGLIQPGGSLRLSCAASGFTVGNNYMSWVRQAPGKGLEWVSVIYSAGSTYYADSVKGRFIISRDNSKDTVYLQMNSLRVDDTAVYYCARNYYGSTLDYWGQGTLVTVSS
# VL: B1 VL with Y91W, F92H
# notes: IgG1/kappa, CHO; also called H1729/L332
# B14: MAb 1850 (antibody, V domains shown)
# VH: B13 VH with L104H
# VL: B1 VL with Y91W, F92H
# notes: IgG1/kappa, CHO; also called H1727/L332
# B15: MAb 1043 (antibody, V domains shown)
# VH: B1 VH with Y104M
# VL: B1 VL with Y91W, F92H
# notes: IgG1/kappa, CHO; also called H1483/L332
# B16: MAb 1874 (antibody, V domains shown)
# VH: B13 VH with L104M
# VL: B1 VL with Y91W, F92H
# notes: IgG1/kappa, CHO; also called H1725/L332
# B17: MAb 2090 (antibody, V domains shown)
# VH: B2 VH with G54I
# VL: B1 VL with V9A, P14S, G50N, S52A, Y91W, F92H
# notes: IgG1/kappa, CHO; also called H1813/L472
# B18: MAb 1131 (antibody, V domains shown)
# VH: B1 VH with Y104H
# VL: B1 VL with Y91W, F92H
# notes: IgG1/kappa, CHO; also called H1518/L332
# B19: MAb 1989 (antibody, V domains shown)
# VH: B2 VH with G54V
# VL: B1 VL with G50N, Y91W, F92H
# notes: IgG1/kappa, CHO; also called H1814/L459
# B20: MAb 1775 (antibody, V domains shown)
# VH: B2 VH with L104M
# VL: B1 VL with Y91W, F92H
# notes: IgG1/kappa, CHO; also called H1687/L332
# B21: MAb 2071 (antibody, V domains shown)
# VH: B2 VH with A56V
# VL: B1 VL with V9A, P14S, G50N, S52A, Y91W, F92H
# notes: IgG1/kappa, CHO; also called H1844/L472
# B22: MAb 1714 (antibody, V domains shown)
# VH: B2 VH with L104F
# VL: B1 VL with Y91W, F92H
# notes: IgG1/kappa, CHO; also called H1678/L332
# B23: MAb 1780 (antibody, V domains shown)
# VH: B2 VH
# VL: B1 VL with Y91W, F92H
# notes: IgG1/kappa, CHO; also called H1685/L332
# B24: MAb 1988 (antibody, V domains shown)
# VH: B2 VH with G54I
# VL: B1 VL with G50N, Y91W, F92H
# notes: IgG1/kappa, CHO; also called H1813/L459
# B25: MAb 2019 (antibody, V domains shown)
# VH: B2 VH with A56V
# VL: B1 VL with G50N, Y91W, F92H
# notes: IgG1/kappa, CHO; also called H1844/L459
# B26: MAb 1895 (antibody, V domains shown)
# VH: B2 VH with L104H
# VL: B1 VL with G50N, Y91W, F92H
# notes: IgG1/kappa, CHO; also called H1596/L459
# B27: MAb 1851 (antibody, V domains shown)
# VH: B13 VH with L104F
# VL: B1 VL with Y91W, F92H
# notes: IgG1/kappa, CHO; also called H1728/L332
# Legend:
# [1] = target: T1, tumor necrosis factor alpha (TNFα) (human, UniProt P01375 77-233); experiment: affinity by IC50 ELISA (so named in paragraph 380)
# T1 sequence (P01375 77-233 limits assumed): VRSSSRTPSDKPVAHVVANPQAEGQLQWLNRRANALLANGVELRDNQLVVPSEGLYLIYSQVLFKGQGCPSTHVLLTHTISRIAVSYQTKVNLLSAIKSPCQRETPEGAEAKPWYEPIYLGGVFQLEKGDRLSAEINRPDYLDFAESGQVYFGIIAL
# [2] = target: T1, tumor necrosis factor alpha (TNFα); experiment: Biacore (SPR); MAb captured by immobilised goat anti-human IgG polyclonal antibody, TNFα as analyte
# [3] = target: T1, tumor necrosis factor alpha (TNFα); experiment: affinity by IC50 ELISA (so named in paragraph 380); remark: listed apart in the source
# [4] = target: T1, tumor necrosis factor alpha (TNFα); experiment: affinity by IC50 ELISA (so named in paragraph 380); remark: listed apart in the source
# [5] = target: T1, tumor necrosis factor alpha (TNFα); experiment: cell-based or functional assay
# [6] = target: T1, tumor necrosis factor alpha (TNFα); experiment: affinity by IC50 ELISA (so named in paragraph 380); remark: listed apart in the source
# [7] = target: T1, tumor necrosis factor alpha (TNFα); experiment: affinity by IC50 ELISA (so named in paragraph 380); remark: listed apart in the source
# [8] = target: T1, tumor necrosis factor alpha (TNFα); experiment: affinity by IC50 ELISA (so named in paragraph 380); remark: listed apart in the source
# [9] = target: T1, tumor necrosis factor alpha (TNFα); experiment: affinity by IC50 ELISA (so named in paragraph 380); remark: listed apart in the source
# [10] = target: T1, tumor necrosis factor alpha (TNFα); experiment: affinity by IC50 ELISA (so named in paragraph 380); remark: listed apart in the source
# [11] = target: T1, tumor necrosis factor alpha (TNFα); experiment: affinity by IC50 ELISA (so named in paragraph 380); remark: listed apart in the source
Molecule,Affinity [3] [nM],"IC50, TNFα cytotoxicity assay (WEHI-13VAR cells) [5]",other results
Humira® (antibody),–,–,Affinity [1]: 0.09 nM; Ka [2]: 3.31e+10 M⁻¹; Kd [2]: 0.0303 nM
B1,0.32,–,Affinity [4]: 0.32 nM
B2,0.08,0.79 nM and 0.9 nM,Affinity [6]: 0.08 nM; Affinity [7]: 0.08 nM
B3,0.14,–,Affinity [8]: 0.14 nM
B4,0.42,–,Affinity [4]: 0.42 nM
B5,0.25,3.5 nM,Affinity [4]: 0.25 nM
B6,0.04,0.3 nM,Affinity [7]: 0.04 nM
B7,0.36,–,Affinity [4]: 0.36 nM
B8,0.02,0.14 nM,Affinity [9]: 0.02 nM
B9,0.18,7 nM,Affinity [10]: 0.18 nM
B10,0.12,–,Affinity [8]: 0.12 nM
B11,0.2,2 nM and 3.08 nM,Affinity [10]: 0.2 nM; Affinity [6]: 0.2 nM
B12,0.04,0.3 nM,Affinity [7]: 0.04 nM
B13,0.41,–,Affinity [11]: 0.41 nM
B14,0.59,–,Affinity [11]: 0.59 nM
B15,0.31,–,Affinity [8]: 0.31 nM
B16,0.38,–,Affinity [11]: 0.38 nM
B17,0.02,0.09 nM,Affinity [9]: 0.02 nM; Ka [2]: 1.2e+11 M⁻¹; Kd [2]: 0.0084 nM; koff [2]: 5.42e-05 s⁻¹; kon [2]: 6.49e+06 M⁻¹ s⁻¹
B18,0.13,–,Affinity [8]: 0.13 nM
B19,0.05,0.2 nM,Affinity [7]: 0.05 nM
B20,0.22,6.5 nM,Affinity [10]: 0.22 nM
B21,0.01,0.03 nM and 0.04 nM,Affinity [9]: 0.01 nM; Ka [2]: 1.77e+11 M⁻¹; Kd [2]: 0.0057 nM; koff [2]: 3.91e-05 s⁻¹; kon [2]: 6.92e+06 M⁻¹ s⁻¹
B22,0.16,1.3 nM,Affinity [10]: 0.16 nM
B23,0.23,1.6 nM and 3.18 nM,Affinity [10]: 0.23 nM; Affinity [6]: 0.23 nM
B24,0.04,0.2 nM,Affinity [7]: 0.04 nM
B25,0.04,0.3 nM,Affinity [7]: 0.04 nM
B26,0.09,0.89 nM,Affinity [6]: 0.09 nM
B27,0.26,–,Affinity [11]: 0.26 nM
